Molecular target: T1, YlxR (Bacillus subtilis) (UniProt P32728)
T1 sequence: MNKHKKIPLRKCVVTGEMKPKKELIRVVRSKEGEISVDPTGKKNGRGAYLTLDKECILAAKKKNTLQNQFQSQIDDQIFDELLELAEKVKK
Experiment: EMSA
Conditions: 10 mM Tris-HCl pH 8.0, 100 mM KCl, 10 mM MgCl2, 1 mM DTT, 1 mM EDTA, 1 ug poly(dI-dC), 20 fmol probe in 20 ul, 15 min at 25 C; 6% native PAGE

Sequence	binding
GGATATTCCAGCAAAATTCGATAAACTAGGAAGAGCACAAATAGGCATAAGCAGGGTTGAAAGGAGGTTTTGGTTC (double strand) [PthiL [-76/-1] Wt]	binds
CTGGATGATATGGCAGAGTGGGTGTCAAAAATTAAATAAAAGAACTATTTTTCTCTTTATACATTCACAGGCCGCCGAGATGTTCTCGACAGCCTTTTATTTTTGACTGCTGCGTGCAGACCCGCATCAAAAGAAATAATTTCAAAATCATTTGCTTCAG (double strand) [PtrmK [-295/-135] Wt]	binds
CTGGATGATATGGCAGAGTGGGTGTACCAAATTAAATAAAAGAACTATTTTTCTCTTTATACATTCACAGGCCGCCGAGATGTTCTCGACAGCCTTTTATTTTTGACTGCTGCGTGCAGACCCGCATCAAAAGAAATAATTTCAAAATCATTTGCTTCAG (double strand) [PtrmK [-295/-135] M1]	binds
GGATATTCCATACCAATTCGATAAACTAGGAAGAGCACAAATAGGCATAAGCAGGGTTGAAAGGAGGTTTTGGTTC (double strand) [PthiL [-76/-1] M1]	binds more weakly

Source: publication PMC6504816
